# Test results published in the supplement of paper PMC12855868.
# B1: library; numbered along this chain (parent)
# chain: MAAAGGARLLRAASAVLGGPAGRWLHHAGSRAGSSGLLRNRGPGGSAEASRSLSVSARARSSSEDKITVHFINRDGETLTTKGKVGDSLLDVVVENNLDIDGFGACEGTLACSTCHLIFEDHIYEKLDAITDEENDMLDLAYGLTDRSRLGCQICLTKSMDNMTVRVPETVADARQSIDVGKTS
# Variants of: B1
# Assay: scaled log2 fold change in cell abundance, elesclomol vs control (0 = silent mean, 1 = nonsense mean) (scaled log2 ratio); higher = higher viability under elesclomol (loss of FDX1 cuproptosis function)
# Conditions: glucose 10 mM
# [1] = with ABC1 FDX1 KO, elesclomol 5 nM, 14 days
# [2] = with HEK293T FDX1 KO, elesclomol 40 nM, 11 days
# 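Further: variant abundance is its share of total variant reads in each endpoint sample, from next-generation sequencing of the integrated ORF PCR-amplified out of genomic DNA.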
Variant,scaled log2 fold change [1],scaled log2 fold change [2]
L144P,0.386,0.307
L140S,-0.172,
L140R,-0.341,-0.397
L140G,-0.344,0.395
G44L,-0.1,0.155
G104W,0.96,0.69
G104Y,0.933,1.09
G104D,1.12,0.43
V16D,0.0655,-0.0447
V16E,-0.716,
V16F,-0.9,0.654
V16N,-0.645,-0.143
G5N,0.381,0.127
G5L,0.0231,-0.373
G5W,0.225,0.578
R11Y,0.189,0.793
R51H,-0.0671,-0.14
R51A,0.176,-0.204
E169V,-0.251,0.342
E169H,0.197,0.526
D136Q,0.344,0.87
K66L,-0.00608,-0.145
T114V,0.906,0.208
C152Q,1.01,1.18

Variant,scaled log2 fold change [1],scaled log2 fold change [2]
I123G,0.293,
I123Q,-0.0633,-0.755
I123H,0.292,-0.438
G19T,0.117,0.837
G19S,0.267,0.0205
S14Q,-0.469,
L98N,0.309,0.504
C115T,1.13,0.783
T183E,-1.02,-0.187
T183L,-0.0402,-0.253
I72V,-0.116,-1.01
I72T,-0.0209,-0.405
I72E,-0.111,-0.295
A4M,0.0396,-0.34
A4K,0.11,0.267
D99H,-0.403,-0.137
A28S,-0.179,-0.13
A28Y,-0.00855,0.974
A28L,-0.00195,
S52C,0.431,-0.0215
V171K,4.83e-05,-0.343
V171A,-0.586,0.229
V171Q,-0.00995,0.876
L9H,-0.458,0.226

Variant,scaled log2 fold change [1],scaled log2 fold change [2]
L9S,0.156,-0.659
L9E,0.282,-0.224
G18P,0.0386,
N73F,0.238,-0.334
N73V,0.102,0.976
E77G,0.311,-0.306
V94D,-0.313,
V94H,-0.328,0.317
V94R,-0.258,1
L150Q,0.537,0.364
L150W,1.06,1.11
G45P,-0.0714,-0.0345
G45F,-0.17,-0.167
S46L,0.572,0.692
W24F,0.286,0.448
W24N,-0.222,0.318
W24R,-0.838,-0.244
E133V,0.153,-0.0517
F71M,0.0919,1.2
L38P,-0.12,0.667
L38V,-0.109,
L38S,-0.172,-0.0978
D173K,0.645,0.0902
S62H,-0.223,0.729

Variant,scaled log2 fold change [1],scaled log2 fold change [2]
S62W,-0.132,
S62F,0.075,0.425
G83Q,0.455,0.716
G83V,0.0583,0.224
V167T,0.214,0.998
V167L,-0.207,-0.904
V69E,1.06,1.55
V69G,1.19,1.06
L89K,1.05,1.47
L89Y,0.534,0.223
D87P,0.439,-0.0143
V55E,-0.307,
L138C,-0.108,0.251
L138D,1.11,1.04
L138K,0.41,-0.306
N97M,0.195,-0.11
N97F,0.103,-0.943
G6W,0.149,0.125
G6P,0.13,0.0736
S56N,0.0549,1.09
R41I,-0.144,0.109
R41W,0.107,0.227
R41V,-0.196,-0.0931
A105D,0.0439,0.0751

Variant,scaled log2 fold change [1],scaled log2 fold change [2]
A105H,-1.17,-0.265
A105K,0.238,0.106
A105M,-0.336,0.677
A105L,-0.395,0.791
T68Y,0.308,0.0848
S159V,0.225,0.738
C106K,1.09,1.38
C106E,1.06,1.3
C106T,1.19,1.27
A13F,0.0208,1.34
A13E,0.269,0.026
L156A,0.194,-1
A141L,-0.402,
G102K,0.473,-0.277
N162I,-0.0298,-0.611
N162V,0.0601,0.0858
N162F,0.167,-0.244
N96V,0.307,0.567
K182P,0.201,
K182H,-0.181,-0.354
K182M,-0.000782,-0.0296
I154H,0.392,0.163
